Patent US20230212266A1 (FRED HUTCHINSON CANCER CENTER, published 2023)

Key:
[1] = molecular target: T1, SARS-CoV-2 receptor binding domain (RBD) (SARS-CoV-2, UniProt P0DTC2 319-591); test: BLI, mAb on anti-human Fc probe, antigen in solution
[2] = molecular target: T1, SARS-CoV-2 receptor binding domain (RBD); test: BLI: mAb on anti-human Fc probe, dipped in the antigen
[3] = molecular target: T1, SARS-CoV-2 receptor binding domain (RBD); test: as above; remark: listed apart in the source
[4] = molecular target: T1, SARS-CoV-2 receptor binding domain (RBD); test: as above; remark: listed apart in the source
[5] = molecular target: T1, SARS-CoV-2 receptor binding domain (RBD); test: BLI, mAb on anti-human Fc probe, antigen in solution; remark: listed apart in the source
[6] = molecular target: T1, SARS-CoV-2 receptor binding domain (RBD); test: BLI: mAb on anti-human Fc probe, dipped in the antigen; remark: listed apart in the source
[7] = molecular target: T1, SARS-CoV-2 receptor binding domain (RBD); test: BLI, mAb on anti-human Fc probe, antigen in solution; remark: listed apart in the source

B1: CV2-40 (antibody, V domains shown)
VH: QVQLVESGGGLVKPGGSLRLSCAASGFTFSDYYMSWIRQAPGKGLEWVSYISSRSSYTNYADSVKGRFTISRDNAKNSLYLQMNSLRAEDTAVYYCARGYDSSGYHYSLWGQGTLVTVSS
VL: QSALTQPASVSGSPGQSITISCTGTSSDVGGYNYVSWYQQHPGKAPKLMIYEVSNRPSGVSNRFSGSKSGNTASLTISGLQAEDEADYYCSSYTNSRTLDVVFGGGTKLTVL
notes: expressed as IgG
- binding result [1]: no binding

B2: CV2-50 (antibody, V domains shown)
VH: QVQLVESGGGVVQPGRSLRLSCAASGFTFSSYGMHWVRQAPGKGLEWVAVISYDGSNQYYADSVKGRFTISRDNSKNTLYLQMNSLRAEDTAVYYCAKDPTIFGVVLQIPRFDYWGQGTLVTVSS
VL: EIVLTQSPATLSLSPGERATLSCRASQSVSSYLAWYQQKPGQAPRLLIYDASNRATGIPARFSGSGSGTDFTLTISSLEPEDFAVYYCQQRSNWPPTFGQGTKLEIK
- binding result [2]: no binding

B3: CV2-44 (antibody, V domains shown)
VH: QVQLVQSGAEVKKPGASVKVSCKASGYTFISYGISWVRQAPGQGLEWMGWISGYNGNTNYAQKFQGRVTMTTDTSTSTAYMELRSLRSDDTAVYYCARVRIFGVVIIVDTAMVLDYWGQGTLVTVSS
VL: QSVLTQPPSVSAAPGQKVTISCSGSSSNIGNNYVSWYQQLPGTAPKLLIYENNKRPSGIPDRFSGSKSGTSATLGITGLQTGDEAHYYCGTWDSSLSAGVFGGGTKLTVL
- binding result [3]: no binding

B4: CV2-45 (antibody, V domains shown)
VH: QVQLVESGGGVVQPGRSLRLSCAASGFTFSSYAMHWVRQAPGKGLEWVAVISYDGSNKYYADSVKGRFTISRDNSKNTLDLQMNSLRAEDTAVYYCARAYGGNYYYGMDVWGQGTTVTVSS
VL: AIQLTQSPSSLSASVGDRVTITCRASQGISSALAWYQQKPGKAPKLLIYDASSLESGVPSRFSGSGSGTDFTLTISSLQPEDFATYYCQQFNNYPLTFGGGTKVEIK
- binding result [4]: no binding

B5: CV2-43 (antibody, V domains shown)
VH: QVQLVQSGAEVKKPGSSVKVSCKASGGTFSSYAISWVRQAPGQGLEWMGGIIPIFGTANYAQKFQGRVTITADESTSTAYMELSSLRSEDTAVYYCARAYSYDSSGYSPDYWGQGTLVTVSS
VL: EIVLTQSPATLSLSPGERATLSCRASQSVSSYLAWYQQKPGQAPRLLIYDASNRATGIPARFSGSGSGTDFTLTISSLEPEDFAVYYCQQRSNWPPKLTFGGGTKVEIK
notes: expressed as IgG
- binding result [5]: no binding

B6: CV2-47 (antibody, V domains shown)
VH: QVQLVQSGAEVKKPGSSVKVSCKTSGGTFSNYAISWVRQAPGQGLEWMGGIIPIFGTANYAQKFQGRVTFTADESTSTAYMELSSLRSEDTAVFYCVSRIAAAADFDYWGQGTLVTVSS
VL: EIVLTQSPATLSLSPGERATLSCRASQSISSYLAWYQQKPGQAPRLLIYDASNRATGIPARFSGSGSGTDFTLTISSLEPEDFAVYYCQQRSNWPPLLTFGGGTKVEIK
- binding result [6]: no binding

B7: CV2-42 (antibody, V domains shown)
VH: QVQLVQSGAEVKKPGASVKVSCKASGYTFTSYGISWVRQAPGQGLEWMGWISAYNGNTNYAQKLQGRVTMTTDTSTSTAYMELRSLRSDDTAVYYCARDRRGSGWSWDYYYYGMDVWGQGTTVTVSS
VL: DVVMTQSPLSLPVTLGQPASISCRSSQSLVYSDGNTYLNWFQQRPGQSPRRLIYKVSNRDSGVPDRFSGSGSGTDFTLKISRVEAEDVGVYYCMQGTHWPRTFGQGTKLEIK
notes: expressed as IgG
- binding result [7]: no binding
